{
  "source": "paper PMC4113144",
  "about": "“IRF-1 regulates alternative mRNA splicing of carcinoembryonic antigen-related cell adhesion molecule 1 (CEACAM1) in breast epithelial cells generating an immunoreceptor tyrosine-based inhibition motif”",
  "binders": {"B1": {"name": "CEACAM1 ISRE WT 60-mer (dsDNA)", "DNA 1": "TGGGAAACCAAAATGTAGACAGAAAGGAAAGAGAAAGTAAGGACAAAGGTAGGAATGAGA", "DNA 2": "TCTCATTCCTACCTTTGTCCTTACTTTCTCTTTCCTTTCTGTCTACATTTTGGTTTCCCA"}},
  "target": "T1, IRF-1 (UniProt P10914 1-325)",
  "T1 sequence": "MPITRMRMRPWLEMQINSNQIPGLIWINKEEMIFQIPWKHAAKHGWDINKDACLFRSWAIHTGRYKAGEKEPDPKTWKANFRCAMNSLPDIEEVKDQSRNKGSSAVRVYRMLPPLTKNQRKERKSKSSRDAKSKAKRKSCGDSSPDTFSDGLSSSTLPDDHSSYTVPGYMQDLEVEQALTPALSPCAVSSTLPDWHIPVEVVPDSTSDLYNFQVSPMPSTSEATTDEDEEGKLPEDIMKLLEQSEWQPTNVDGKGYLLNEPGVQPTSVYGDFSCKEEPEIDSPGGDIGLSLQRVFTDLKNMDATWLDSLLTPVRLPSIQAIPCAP",
  "test": "EMSA; 17 pmol IRF-1 : 0.3 pmol DNA lowest ratio; mostly C1 plus C2 complexes; LightShift 1X binding buffer, 5% glycerol, 10 mM MgCl2, 200 ng poly(dI-dC), 0.3 pmol labeled DNA in 10 ul, room temperature 30 min; 6% DNA retardation gel; pH and salt not given",
  "conditions": "protein: commercial; tags: His; label: IRDye 700",
  "data": [
    {"binder": "B1", "values": [
      {"measurement": "binding result", "value": "binds"}
    ]}
  ]
}
